Measurements taken from the DeepSol protein solubility set.

Test: soluble on expression in E. coli; label from the status in PepcDB or PDB records
With “MGSDKIHHHHHHMAETIETMGGQAALDHVSRLLSLKVDIRGLEHLPAEGRVVIVANHPTGIGDGVAVYDALKTHRPDIVFYANADAHRVCPRFDDVLIPVEWVEEKRSRERMRLTLSMTREAMEAERALMIFPAGRLAVTDAEGRLSDPPWMSSAVSIARKYGAPIAPIHLEGPWSTLFHLFGRLSRELRDITLFHELLNKTGRRFSLTIGPPVDPEALPRDAEQATEVLKRYVERQLPNEPTSPLT” the “soluble on expression in E. coli” value was “not soluble”. In the case of “MGSDKIHHHHHHMAFFGYKDIDKLSGVDLAIYRFIVEHDEQIPYMRVRELARGAHVSNSSVMRFIRKIGYDSFPEFKVSLRSETPIQKPDAPGIQFVQPSAFPADITKIIRLAAQLMVNADNIVFVGIGASAALGEYASRQTSSLGFNSYVVKDPFYPLLPQLRNTSNNVLVAVSVSGQTSELVEMLNDFVNNPEVNIISITSNLESTIARMSRYALTYRATEERIHQYYDLTSQVPCLYIIEALLRELRHQEVVQHRFE”, the “soluble on expression in E. coli” value is reported as “not soluble”. In the case of “MGSDKIHHHHHHMAFLDVKGIRKTFPGVVALDGVDLEIELGAVHVLAGENGAGKSTLIRALTGLLPLDGGSIHIDGRDALTDRSAFDLVAYVPQELSLFPHMSVAENLFMPFAKAGFGGRVLPYAEMNRQAGAILERFSIKARPEQKVKSIAVSDQQLLQIARATTNKRLKVLILDEPTSSLTTQEIDRLFRILRQFRDNGTAIVFVSHKMEEIFELGTTVTVLRNGKTVGHRPMAAVSEPELIRLMSGDEVQLDQLFQPACAPGETIVTVDGLCGQGFHDISFALRRGEILGFAGLVGAGRSEVMQSMFGFKKPTGGTVLLKGRPLKLGKPSAAVEAGMLYLSEERRLHGILPVLSLRENIGISVLDQTSRGGVISTARERGVVGEVIASYDIKASSPEKKIMFLSGGNQQKAIIGRAMARKPDVLIFDEPTRGIDIRNKVEIYKIMKRLAEDGVAIILVSSEMAELKRCASRIITMYSGKLSGEFATATTDTHTLVGAIIGSAQSGQPPAGAPSPVADLETGARCHVL”, the “soluble on expression in E. coli” value is reported as “not soluble”. For “MGSDKIHHHHHHMAGDIIVRNKFCDISKVRFRKWDEIDVIFWKFGKSNPERKSGGYYLNAYKDAYIQYNKERIIKYANQAGILPELLGGVAWIESGGMPEEYKFQVFEIKRFLKLKSSPENKTSFGSVAMQIQVAARTLGLNPDILTTRDQLELATCLMEDDFNLWIVAQHLRDMILYDYPSVAALYLTDEQYMMAGIRYNRGIQRKLSEFIRFIDAKPERGSAEFDYISYGVRLLQIRNHIRKLLELNT”, the “soluble on expression in E. coli” value was “not soluble”. In the case of “MGSDKIHHHHHHMAGSLIERTLRVLETLSSEPDGIPLQRLAERLEIPKSAAHRICNELGRQGYVRQETRTGHYRLSTRLIALGFRYLGSTGASDVLQPILDRLADETGELVRLGVIEGDRQTWIAKAQGTRTGLRYDPDMGREAPLRYTASGQAWLASLDDQAALALLERQGHHNPEHFGPNAPRTDYELLDRLALARERGYTCCVDSSALGTSAFGAVIRHPMQGHTIGVISVAGPSVRLTEDRMHELAPKLLQAVEELSQCSQASQLFSE”, the “soluble on expression in E. coli” value is reported as “not soluble”. For “MGSDKIHHHHHHMAIQQLEKPEHAGRRTAPEITVSGIGKRYGATPVLMDVTLSVTPGEIHGIMGENGAGKSTLLKILGGAIMADSGTMELDGNPVRITTPRDAISQGISLISQELALIPNLSVLENVFLGRWSNRGSLLRPTKDGDHFARLLEETGFDLDPRATVGNLPIGQQQQVEILKALARGAKVLCMDEPTAVLNEAEKEKLLQVIKRLAQTGTTILIVSHYLEEVLELVDRVTILRDGQHIVTEDAAGHTPESLVRLMVGRDVDFLLPEIRQVQSQADTVLRVVGLTSAKVKEISFQVRRGEILGIAGLVGSGRSETLLAVFGADRTTGGHVEVNGRRIRASSIRDAIKAGIALIPESRKEQGLVMSRPASENIALSTLSGRSWAGFVSARREKAAVKDVSRSVDLRGARPGQPIANLSGGNQQKALFAKWLLDPPAVLLVDEPTRGVDIAAKARIHSIIAELAAKGTAVIVVSSELEEVLGLSHRIHVMRHGRIVAEFDRNASRDEVMTSAFLK”, the “soluble on expression in E. coli” value was “not soluble”. With “MGSDKIHHHHHHMAISRLLVEKFRNLTAVDLDFDPCFNFLIGNNGSGKTSLLEAIFYLGHGRSFKSAVTNRIISYDEPHFTLFGQIQESQHQWSIGLQKLRQGNTLVKINGEDGNKISDLAHLLPMQLITPEGLTLLNGGPSYRRAFLDWGLFHHQTSFYSAWSNLNRLLKQRNAALAQNQPYSAIKIWDVELAKLAHQVSEWRAEYAEALSPEIEQTCQLFLPELEINVSFHQGWEKNADYYEILQQNFERDRALNYTFSGPQKADFRFKAQGLPVEDVLSRGQLKLLMCALRLAQGEHLMKEKQRHCIFLIDDFASELDQYKRALLAERLQQSGSQVFVTAITQRQLKEMQVENKKMFSVHNGIINALN” the “soluble on expression in E. coli” value was “not soluble”.
